According to US5643726, “Methods for modulating transcription from the amyloid β-protein precursor (APP) promoter” (The General Hospital Corporation, dated 1996):

Tests used:
[1] = molecular target: T1, USF (43 kDa, recombinant USF) (UniProt P22415 P22415:1-310); assay: competition; cold competitor up to 50-fold failed to diminish complex on DK-1; conditions: tags: expressed in and purified from bacteria; chain copies: 2
Protocol: (§1) EMSA was carried out as in Miner et al. (Miner, L. L. et al., *J. Neurosci. Res.* 33:10–18 (1992)). 1 ng of DNA fragment was incubated with 1 µg nuclear extract for 20 rain at 20° C., unless otherwise indicated. After incubation, the binding mixture was resolved on 6% polyacrylamide gels containing 4% glycerol in 25 mM Tris-borate (pH 8.3), 0.5 mM EDTA. Gels were dried and exposed to Kodak X-OMAT AR film with intensifying screen.
(§2) The amount of complex formed decreased with increasing amounts of cold fragment.

[2] = molecular target: T1, USF (43 kDa, recombinant USF); assay: EMSA; visible complex with 350 pg rUSF; competed by cold DK-1; conditions: tags: expressed in and purified from bacteria; chain copies: 2; label: 32P
Protocol: as §1, §2

[3] = molecular target: upstream stimulatory factor (USF), 43 kDa form (Homo sapiens (Human), UniProt P22415); assay: cell-based or functional assay

T1 sequence (P22415 whole entry, the tested form may be a part, one chain of several): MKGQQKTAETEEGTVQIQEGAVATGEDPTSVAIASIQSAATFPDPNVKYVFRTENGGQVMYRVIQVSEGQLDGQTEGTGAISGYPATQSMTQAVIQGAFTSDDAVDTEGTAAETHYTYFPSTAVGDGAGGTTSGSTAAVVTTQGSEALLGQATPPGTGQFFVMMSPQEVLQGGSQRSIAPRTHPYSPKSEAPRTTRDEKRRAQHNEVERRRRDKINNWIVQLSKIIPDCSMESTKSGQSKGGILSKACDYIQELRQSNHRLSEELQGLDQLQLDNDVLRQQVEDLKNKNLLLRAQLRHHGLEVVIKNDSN

Row | relative luciferase units (USF activation of transcription from the APP promoter) [3] [fold] | Binder | also measured
1 |  | AP-1/AP-4 Random (dsDNA) DNA 1: GGGCCGGAATCGTGCTGTCGCCTGGCTCT DNA 2: AGAGCCAGGCGACAGCACGATTCCGGCCC | binding result [1]: no binding
2 |  | DK-1 fragment (APP promoter -58 to -30, AP-1/AP-4) (dsDNA) DNA 1: GGGCCGGATCAGCTGACTCGCCTGGCTCT DNA 2: AGAGCCAGGCGAGTCAGCTGATCCGGCCC | binding result [2]: binds
3 | ~2 | human amyloid precursor-like protein APLP2 (other) GYIEALAAAAGTGFAVAEPQIAMFCGKLNMHVNIQTGKWEPDPTGTKSCFRTKEEVLQYCQEMYPELQITNVMEANQRVSIDNWCRRDKKQCKSRFVTPFKCLVGEFVSDVLLVPEKCRFFHKERMEVCENHQHWHTVVKEACLTQGMTLYSYGMLLPCGVDQFHGTEYVCCPQTKDYWSVSKEEEEEEDEEEEEEEDEEEDYDVYKSEFPTEADLEDFTEAAVDEDDEDEEEGEEVVEDRDYYYDTFKGDDYNEENPTEPGSDGTMSDKEITHDVKVPPTPLPTNDVDVYFETSADDNEHARFQKAEKEQLIERHRNRMDRVKKEWEEAELQAKNLPKAERQTLIQHFQAMVKALEKAEAASEKQQLVETHLARVEAMLNDRRMALENYLAALQRSDPPRPHRILQPLRRYVRAENKDRLHTIRHYQHVLAVDPEKAAQMKSQVMTHLHVIEERRNQSLSLLYKDPYVARIQENDELLQAERADMDQFTASISETPVDVRVSSEESEEIPPFHPFHPFPALPENEDTQPELYHPMKKGSGVGEQDGGLIGAEEKVINSKNKVDENMVIDETLDKEMIFNAERVGGLEERESVGPLREDFSLSSSASIGLLVIAVAIATVIVISLVMLRKRQVCTISHGIVEVDPMLTPEERHLNKMQNHGYENPTYKTLEQMQI | 
4 | ~2 | mouse amyloid precursor-like protein APLP1 (other) MGPTSPAARGQGRRWRPPLPLLLPLSLLLLRAQLAVGNLAVGSPSAAEAPGSAQVAGLCGRLTLHRDLRTGRWEPDPQRSRRCLLDPQRVLEYCRQMYPELHIARVEQAAQAIPMERWCGGTRSGRCAHPHHEVVPFHCLPGEFVSEALLVPEGCRFLHQERMDQCESSTRRHQEAQEACSSQGLILHGSGMLLPCGSDRFRGVEYVCCPPPATPNPSGMAAGDPSTRSWPLGGRAEGGEDEEEVESFPQPVDDYFVEPPQAEEEEEEEEERAPPPSSHTPVMVSRVTPTPRPTDGVDVYFGMPGEIGEHEGFLRAKMDLEERRMRQINEVMREWAMADSQSKNLPKADRQALNEHFQSILQTLEEQVSGERQRLVETHATRVIALINDQRRAALEGFLAALQGDPPQAERVLMALRRYLRAEQKEQRHTLRHYQHVAAVDPEKAQQMRFQVQTHLQVIEERMNQSLGLLDQNPHLAQELRPQIQELLLAEHLGPSELDASVPGSSSEDKGSLQPPESKDDPPVTLPKGSTDQESSSSGREKLTPLEQYEQKVNASAPRGFPFHSSDIQRDELAPSGTGVSREALSGLLIMGAGGGSLIVLSLLLLRKKKPYGTISHGVVEVDPMLTLEEQQLRELQRHGYENPTYRFLEERP | 
